The values below are quoted from earlier work in article PMC6085760.

The Kd is the concentration at which binding is half-saturated.

In this data set the target is Amyloid-β (Homo sapiens) (UniProt P05067).
Sequence of Amyloid-β (Homo sapiens) (P05067 672-711): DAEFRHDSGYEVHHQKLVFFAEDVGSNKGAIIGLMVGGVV

For LPFFD peptide, the Kd was 156 µM.
